Experimental data reported in publication PMC7326950, “Hypoxanthine-Guanine Phosphoribosyltransferase/adenylate Kinase From Zobellia galactanivorans: A Bifunctional Catalyst for the Synthesis of Nucleoside-5′-Mono-, Di- and Triphosphates” (Frontiers in Bioengineering and Biotechnology, 2020).

What was measured:
ZgHGPRT/AMPK = biological target: T1, ZgHGPRT/AMPK (Zobellia galactanivorans, UniProt G0LC40); assay: steady-state kinetics, HPLC of IMP formation, non-linear regression; format: biochemical; conditions: HGPRT domain; apparent substrate inhibition at high Hyp; PRPP fixed at 5 mM; varied Hyp 0.5–17.2 mM; Mg2+
T1 construct: gene adkA; homodimer
Source text: (§1) steady-state kinetics, HPLC of IMP formation, non-linear regression on ZgHGPRT/AMPK

[1] = substrate: O=c1[nH]cnc2nc[nH]c12; assay: as above; format: biochemical, Zobellia galactanivorans; conditions: HGPRT domain; apparent; PRPP fixed at 5 mM; varied Hyp 0.5–17.2 mM; Mg2+
Source text: as §1

[2] = substrate: O=P(O)(O)OC[C@H]1O[C@H](OP(=O)(O)OP(=O)(O)O)[C@H](O)[C@@H]1O; assay: as above; format: biochemical, Zobellia galactanivorans; conditions: HGPRT domain; apparent; Hyp fixed at 5 mM; varied PRPP 0.5–17.2 mM; Mg2+
Source text: as §1

purified protein = substrate: Nc1ncnc2c1ncn2[C@@H]1O[C@H](COP(=O)(O)O)[C@@H](O)[C@H]1O; assay: purified protein; conditions: AMPK domain; apparent; ATP fixed at 3.2 mM; varied AMP 0.5–10 mM; Mg2+
[3] = biological target: the molecule itself; assay: AUC; sedimentation velocity, 20 mM Tris-HCl pH 8, 20°C, 50,000 x g, profiles at 292 nm, c(s) by SEDFIT; protein 0.4 mg/ml
[4] = substrate: Nc1ncnc2c1ncn2[C@@H]1O[C@H](COP(=O)(O)OP(=O)(O)OP(=O)(O)O)[C@@H](O)[C@H]1O; assay: steady-state kinetics, HPLC of ADP formation, non-linear regression; format: biochemical, Zobellia galactanivorans; conditions: AMPK domain; apparent; AMP fixed at 3.2 mM; varied ATP 0.5–10 mM; Mg2+
Source text: steady-state kinetics, HPLC of ADP formation, non-linear regression on ZgHGPRT/AMPK

Molecule	Value with variable substrate / Hyp^a (ZgHGPRT/AMPK)	Km [1]	kcat [1]	kcat/Km [1]	Km [2]	kcat [2]	kcat/Km [2]	Km (purified protein)	kcat (purified protein)	kcat/Km (purified protein)	stoichiometry N [3]	Km [4]	kcat [4]	kcat/Km [4]
O=c1[nH]cnc2nc[nH]c12 [compound 1, hypoxanthine]	11.12 ± 1.02 mM	–	–	–	–	–	–	–	–	–	–	–	–	–
hypoxanthine-guanine phosphoribosyltransferase (HGPRT)/adenylate kinase (AMPK) from Zobellia galactanivorans (enzyme, UniProt G0LC40 1-368, looked up, gene from GenScript cloned NheI-BamHI into pET28b(+); The vector encodes a thrombin cleavage site between the His6 tag and the enzyme; no cleavage is described, and the measured mass is compared with that of the His6-tagged protein (43.77 kDa); also called ZgHGPRT/AMPK; HGPRT/AMPK; source: E. coli BL21(DE3), purified (HisTrap FF, Superdex 200); not shown: His6, N-terminal, kept) MIKLHDKHFKPFLSEAQIKAAVKKVAEQVAADYKDETPIFVGVLNGAFMFISDFLKEYQYPCEVSFVKLSSYQGLTSTGIVETLLDVSENIEGRSVIILEDIIDTGRTLKKLVHLFSKANVKEFRVASLFYKSEVYNGEYTIDYVGIDIPDKFIVGYGLDYNELGRNLREVYQLNQKHMINLVLFGKPGAGKGTQAEFLKDKYNLKHISTGDLFRFNMKNDTELGKLAKSYIDRGDLVPDEVTIKMLQDAVEKNPEASGFIFDGFPRTVAQAEALDKFLATKDMKIDATIALEANDEVLIQRLLERGKVSGRSDDQDESKIRNRFDEYNEKTAPLKDFYENQGKFHSVNGIGAIDEITHRLGKVIEEL	–	1.01 ± 0.05 mM	1.11 ± 0.06 s⁻¹	1100 M⁻¹ s⁻¹	6.77 ± 0.41 mM	2.82 ± 0.21 s⁻¹	420 M⁻¹ s⁻¹	8.02 ± 0.40 mM	0.16 s⁻¹	20 M⁻¹ s⁻¹	2	0.77 ± 0.04 mM	0.07 ± 0.003 s⁻¹	100 M⁻¹ s⁻¹
